For this experiment, the target named is T1, hiR2-FL-D569E-T7 (human, UniProt Q6PJF5 1-856).
T1 sequence: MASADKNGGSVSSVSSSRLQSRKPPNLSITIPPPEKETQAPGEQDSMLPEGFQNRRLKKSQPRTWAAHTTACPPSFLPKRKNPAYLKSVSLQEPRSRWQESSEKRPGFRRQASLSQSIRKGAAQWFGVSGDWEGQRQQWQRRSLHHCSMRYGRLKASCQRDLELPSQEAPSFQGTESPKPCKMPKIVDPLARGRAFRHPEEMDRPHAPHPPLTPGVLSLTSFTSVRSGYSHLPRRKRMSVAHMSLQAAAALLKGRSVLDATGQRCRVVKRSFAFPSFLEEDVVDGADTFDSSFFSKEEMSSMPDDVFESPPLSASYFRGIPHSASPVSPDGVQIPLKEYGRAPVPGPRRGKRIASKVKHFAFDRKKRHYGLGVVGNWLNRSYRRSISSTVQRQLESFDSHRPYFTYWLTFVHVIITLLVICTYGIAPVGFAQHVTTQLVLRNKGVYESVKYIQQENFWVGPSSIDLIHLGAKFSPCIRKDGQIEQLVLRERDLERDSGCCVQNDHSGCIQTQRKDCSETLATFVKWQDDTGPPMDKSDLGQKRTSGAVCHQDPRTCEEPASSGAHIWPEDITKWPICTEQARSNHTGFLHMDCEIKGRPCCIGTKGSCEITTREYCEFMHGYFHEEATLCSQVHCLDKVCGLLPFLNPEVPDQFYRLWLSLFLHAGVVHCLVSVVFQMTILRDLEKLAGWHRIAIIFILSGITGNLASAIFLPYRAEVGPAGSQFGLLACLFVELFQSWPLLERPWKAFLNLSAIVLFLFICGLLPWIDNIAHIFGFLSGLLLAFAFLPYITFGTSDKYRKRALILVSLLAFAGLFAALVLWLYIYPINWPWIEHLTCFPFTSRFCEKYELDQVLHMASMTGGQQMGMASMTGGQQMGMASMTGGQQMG
Nature of the experiment: FACS, MEF-DKO cells, 3 µg/ml. An outline of the steps: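 Binding read by flow cytometry after a PE goat anti-mouse IgG F(ab′)2 secondary (1:100, on ice, 1 h, dark). Before that, immortalized MEF-DKO lines carrying single-mutant hiR2-FL-T7 constructs were incubated 1 h on ice with 3 μg/ml antibody or FACS buffer alone.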
(Flow cytometry measures light scatter and fluorescence of single cells or particles in a stream.)

Changes are numbered by the printed parent chain.

B1: antibody 48 (antibody, V domains shown)
VH: QVQLQQSGTELVRPGTSVKVSCKASGYAFTNYLIEWVKQRPGQGLEWIGVINPGSGFTKYNEKFKGKATLTADKSSSTVYMHLSSLTSEDSAVYFCARGLYRAMDYWGQGTSVTVSS
VL: DIQMTQSPASQSASLGESVTITCLASQTIATWLAWYQQKPGKSPQLLIYGATTLADGVPSRFSGGGSGTKFSFKISSLQAEDFVSYYCQQLYSTPYTFGGGTKLEIK
notes: mouse IgG, kappa light chain; also called clone #48; purified antibody 48
In the case of B1, the “loss of binding vs wild type” value was at least 30%.

B2: antibody 50 (antibody, V domains shown)
VH: B1 VH with T9A, T16A, T30S, V79A, H82Q
VL: B1 VL with A30G, G50A, T52A, T53S, S85N, L91I
notes: mouse IgG, kappa light chain; also called clone #50; purified antibody 50
As to B2, the “loss of binding vs wild type” value was at least 30%.
